Tests used:
[1] = molecular target: T1, cell surface Annexin A2 (ANXA2) on live cells (human, UniProt P07355 2-339, N-linked glycan (N-glycan-dependent epitope; its position is not shown by an experiment)); assay: flow cytometry on live IGROV1 cells
T1 construct: Endogenous ANXA2 on live human cancer cell lines (IGROV1, MCF7 and others) and hESC; also called annexin 2

[2] = molecular target: T1, cell surface Annexin A2 (ANXA2) on live …; assay: flow cytometry

T1 sequence (P07355 2-339 limits assumed): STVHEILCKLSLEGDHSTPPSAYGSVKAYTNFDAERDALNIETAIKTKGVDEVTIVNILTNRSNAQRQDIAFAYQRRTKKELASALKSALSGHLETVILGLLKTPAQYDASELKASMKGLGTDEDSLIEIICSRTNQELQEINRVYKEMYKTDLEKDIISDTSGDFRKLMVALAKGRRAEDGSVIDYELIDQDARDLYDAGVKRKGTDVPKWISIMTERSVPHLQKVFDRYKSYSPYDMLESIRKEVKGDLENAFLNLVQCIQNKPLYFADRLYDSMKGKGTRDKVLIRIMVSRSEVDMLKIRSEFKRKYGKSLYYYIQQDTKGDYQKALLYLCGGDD

Row | Binder | binding result [1] | binding result [2]
1 | mAb 2448 (antibody, V domains shown) VH: VQLQESGPDLVKPSRSLSLTCTVTGYSITSGYSWHWIRQFPGNKLEWMGYIHYSGSTKYNPSLKSRISITRDTSKNQFFLQLNSVTTEDAATYYCARGSNYGFDYWGQGTTLTVSS VL: DIELTQSPSSLAVSVGEKVTMSCKSSQSLLYSNDQKNYLAWYQQKPGQSPKLLIYWASIRESGVPDRFTGSGSGTDFTLTISSVKAEDLAVYYCQQYYIYPLTFGAGTKLEIKR | binds | –
2 | Afucosylated ch2448 (antibody, V domains shown, also called aF-ch2448) VH: VQLQESGPDLVKPSRSLSLTCTVTGYSITSGYSWHWIRQFPGNKLEWMGYIHYSGSTKYNPSLKSRISITRDTSKNQFFLQLNSVTTEDAATYYCARGSNYGFDYWGQGTTLTVSS VL: DIELTQSPSSLAVSVGEKVTMSCKSSQSLLYSNDQKNYLAWYQQKPGQSPKLLIYWASIRESGVPDRFTGSGSGTDFTLTISSVKAEDLAVYYCQQYYIYPLTFGAGTKLEIKR | – | binds
3 | Chimeric mAb ch2448 (antibody, V domains shown, also called wildtype chimeric mAb ch2448) VH: VQLQESGPDLVKPSRSLSLTCTVTGYSITSGYSWHWIRQFPGNKLEWMGYIHYSGSTKYNPSLKSRISITRDTSKNQFFLQLNSVTTEDAATYYCARGSNYGFDYWGQGTTLTVSS VL: DIELTQSPSSLAVSVGEKVTMSCKSSQSLLYSNDQKNYLAWYQQKPGQSPKLLIYWASIRESGVPDRFTGSGSGTDFTLTISSVKAEDLAVYYCQQYYIYPLTFGAGTKLEIKR | – | binds
